For one assay, the target named is ErbB2 CCH-10 (UniProt P04626). Nature of the assay: bipartite tetracysteine display.
Another assay deals with ErbB2 V635G CCH-10 (UniProt P04626). Kind of assay: bipartite tetracysteine display.

“ErbB2 CCH-10 (from UniProt P04626 23-1255) (receptor)” registered a fold increase in ReAsH fluorescence (no growth factor) with ErbB2 CCH-10 of 1.8 fold.

In turn, “ErbB2 V635G CCH-10 (from UniProt P04626 23-1255) (receptor)” had a fold increase in ReAsH fluorescence (no growth factor) with ErbB2 V635G CCH-10 of 1.7 fold.
